Reference: PMC9198812, “Residues located in the primase domain of the bacteriophage T7 primase-helicase are essential for loading the hexameric complex onto DNA” (The Journal of Biological Chemistry, 2022)
Changes are numbered by the printed parent chain. Names and notes keep the numbering of the source.

B1: bacteriophage T7 primase-helicase gp4, wild type (63 kDa form) (enzyme, UniProt P03692 1-566, looked up)
chain: MDNSHDSDSVFLYHIPCDNCGSSDGNSLFSDGHTFCYVCEKWTAGNEDTKERASKRKPSGGKPMTYNVWNFGESNGRYSALTARGISKETCQKAGYWIAKVDGVMYQVADYRDQNGNIVSQKVRDKDKNFKTTGSHKSDALFGKHLWNGGKKIVVTEGEIDMLTVMELQDCKYPVVSLGHGASAAKKTCAANYEYFDQFEQIILMFDMDEAGRKAVEEAAQVLPAGKVRVAVLPCKDANECHLNGHDREIMEQVWNAGPWIPDGVVSALSLRERIREHLSSEESVGLLFSGCTGINDKTLGARGGEVIMVTSGSGMGKSTFVRQQALQWGTAMGKKVGLAMLEESVEETAEDLIGLHNRVRLRQSDSLKREIIENGKFDQWFDELFGNDTFHLYDSFAEAETDRLLAKLAYMRSGLGCDVIILDHISIVVSASGESDERKMIDNLMTKLKGFAKSTGVVLVVICHLKNPDKGKAHEEGRPVSITDLRGSGALRQLSDTIIALERNQQGDMPNLVLVRILKCRFTGDTGIAGYMEYNKETGWLEPSSYSGEEESHSESTDWSNDTDF
notes: bacteriophage T7 gene 4 primase-helicase, full-length 63 kDa form (residues 1-566); also called WT gp4; gp4A
B2: bacteriophage T7 primase-helicase gp4 Y111A (63 kDa form) (enzyme, UniProt P03692 1-566, looked up)
chain: B1 chain with Y111A
notes: bacteriophage T7 gene 4 primase-helicase, 63 kDa form (residues 1-566), with Y111A made by site-directed mutagenesis on pET28-gp4A; also called Y111A gp4; gp4-Y11A [sic]

Target: the molecule itself
Test: mass photometry; self-association, monomers to hexamer; 8.7 nM gp4 (hexamer concentration) in 40 mM Tris-HCl pH 7.5, 150 mM KCl, 10 mM MgCl2, 25 °C, 15 min, with 10 nM 50-nt ssDNA and 1 mM [β,γ-CH2] dTTP; Refeyn OneMP

Protein	stoichiometry N
B1	6
B2	6
